# Source: patent publication US20180044391A1 (DEUTSCHES KREBSFORSCHUNGSZENTRUM, published 2018)
# T1: CD19 (UniProt P15391 20-556, limits assumed)
# T1 sequence (looked up): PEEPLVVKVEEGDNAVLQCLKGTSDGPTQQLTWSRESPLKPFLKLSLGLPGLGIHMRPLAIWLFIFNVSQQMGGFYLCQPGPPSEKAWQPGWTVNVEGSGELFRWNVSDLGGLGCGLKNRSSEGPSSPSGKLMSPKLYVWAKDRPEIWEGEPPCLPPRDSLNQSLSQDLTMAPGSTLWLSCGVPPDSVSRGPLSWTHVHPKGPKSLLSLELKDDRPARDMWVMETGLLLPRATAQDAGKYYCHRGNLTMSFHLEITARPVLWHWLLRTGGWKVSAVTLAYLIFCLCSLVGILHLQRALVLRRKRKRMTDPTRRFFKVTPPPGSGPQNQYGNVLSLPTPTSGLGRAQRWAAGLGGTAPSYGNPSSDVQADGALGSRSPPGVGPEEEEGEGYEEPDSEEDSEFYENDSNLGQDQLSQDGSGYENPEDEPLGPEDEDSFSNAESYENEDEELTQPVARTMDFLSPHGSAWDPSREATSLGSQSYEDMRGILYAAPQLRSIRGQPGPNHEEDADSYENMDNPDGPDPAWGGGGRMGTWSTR
# Target: T1, CD19
# Assay: cell-based or functional assay
binder,measurement,value
"αCD19-SDIE (antibody, human IgG1, V domains shown) VH: EVQLQQSGPELIKPGASVKMSCKASGYTFTSYVMHWVKQKPGQGLEWIGYINPYNDGTKYNEKFKGKATLTSDKSSSTAYMELSSLTSEDSAVYYCARGTYYYGSRVFDYWGQGTTLTVSS VL: DIVMTQAAPSIPVTPGESVSISCRSSKSLLNSNGNTYLYWFLQRPGQSPQLLIYRMSNLASGVPDRFSGSGSGTAFTLRISRVEAEDVGVYYCMQHLEYPFTFGAGTKLELK","inhibition of proliferation of NALM16 cells with PBMC (3H-thymidine uptake, 2 days)",~60%
